Changes are numbered by the printed parent chain.
T1: LIN7C, Q9NUP9
T1 sequence (Q9NUP9 88-185, limits assumed, looked up): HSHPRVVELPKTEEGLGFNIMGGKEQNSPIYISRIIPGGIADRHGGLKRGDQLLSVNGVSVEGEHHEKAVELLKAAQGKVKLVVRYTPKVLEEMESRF

T2: TX1BP3, O14907
T2 sequence (O14907 10-122, limits assumed, looked up): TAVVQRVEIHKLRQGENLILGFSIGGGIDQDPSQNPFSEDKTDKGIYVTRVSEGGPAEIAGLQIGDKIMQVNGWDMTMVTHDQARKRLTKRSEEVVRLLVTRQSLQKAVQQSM

T3: TIAM2, Q8IVF5
T3 sequence (Q8IVF5 885-986, limits assumed, looked up): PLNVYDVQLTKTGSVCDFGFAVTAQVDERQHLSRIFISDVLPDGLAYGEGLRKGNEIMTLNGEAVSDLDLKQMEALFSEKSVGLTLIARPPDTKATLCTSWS

T4: MPDZ_5, O75970
T4 sequence (O75970 695-796, limits assumed, looked up): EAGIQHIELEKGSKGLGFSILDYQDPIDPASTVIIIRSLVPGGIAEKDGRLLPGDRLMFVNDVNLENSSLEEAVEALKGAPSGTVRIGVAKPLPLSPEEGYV

T5: ARHGAP21, Q5T5U3
T5 sequence (Q5T5U3 45-169, limits assumed, looked up): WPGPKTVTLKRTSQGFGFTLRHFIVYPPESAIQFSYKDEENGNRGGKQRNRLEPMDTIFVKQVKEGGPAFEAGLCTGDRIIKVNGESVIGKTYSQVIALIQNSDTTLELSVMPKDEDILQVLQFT

T6: MPDZ_10, O75970
T6 sequence (O75970 1624-1722, limits assumed, looked up): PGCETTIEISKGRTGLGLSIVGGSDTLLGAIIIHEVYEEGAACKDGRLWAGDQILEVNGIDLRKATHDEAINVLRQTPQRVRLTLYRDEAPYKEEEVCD

T7: LIN7B, Q9HAP6
T7 sequence (Q9HAP6 88-185, limits assumed, looked up): T1 sequence (Q9NUP9 88-185, limits assumed, looked up) with S2A, E13D, I35V, I40V, H65Q, K79S, K89R, S96A

T8: DLG3_1, Q92796
T8 sequence (Q92796 125-227, limits assumed, looked up): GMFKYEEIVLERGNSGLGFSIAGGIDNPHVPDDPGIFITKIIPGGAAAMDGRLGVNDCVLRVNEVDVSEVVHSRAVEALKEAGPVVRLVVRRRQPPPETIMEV

T9: SNTB1, Q13884
T9 sequence (Q13884 107-205, limits assumed, looked up): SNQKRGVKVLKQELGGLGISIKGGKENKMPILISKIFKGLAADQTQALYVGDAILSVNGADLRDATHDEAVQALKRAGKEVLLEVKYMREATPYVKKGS

T10: GRIP1_4, Q9Y3R0
T10 sequence (Q9Y3R0 467-571, limits assumed, looked up): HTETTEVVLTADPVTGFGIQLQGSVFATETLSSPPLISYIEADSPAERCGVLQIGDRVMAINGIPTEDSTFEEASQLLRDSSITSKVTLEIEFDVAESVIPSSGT

T11: MPP6, Q9NZW5
T11 sequence (Q9NZW5 125-219, limits assumed, looked up): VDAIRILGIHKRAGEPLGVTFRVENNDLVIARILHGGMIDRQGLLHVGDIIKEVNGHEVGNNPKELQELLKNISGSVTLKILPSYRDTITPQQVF

T12: PDZD2_2, O15018
T12 sequence (O15018 329-429, limits assumed, looked up): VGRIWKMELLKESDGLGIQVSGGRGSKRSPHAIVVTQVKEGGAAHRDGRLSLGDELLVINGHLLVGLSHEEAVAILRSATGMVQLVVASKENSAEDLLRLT


Legend:
Test in all cases: holdup assay
Design in all cases: key: below the threshold = too weak to quantify, mostly under pKd 3.1 to 4
Conditions in all cases: plain residues with an end cap or a label only (N-terminal biotin on a linker: ado-ado)
[1] = molecular target: SNX27, Q96L92
[2] = molecular target: LNX1_2, Q8TBB1
LNX1_2, Q8TBB1, sequence (Q8TBB1 371-470): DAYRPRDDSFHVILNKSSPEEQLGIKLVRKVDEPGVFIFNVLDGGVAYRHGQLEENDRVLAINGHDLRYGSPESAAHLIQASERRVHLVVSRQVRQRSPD

[3] = molecular target: T1, LIN7C, Q9NUP9
[4] = molecular target: MAGI1_2, Q96QZ7
MAGI1_2, Q96QZ7, sequence (Q96QZ7 456-580): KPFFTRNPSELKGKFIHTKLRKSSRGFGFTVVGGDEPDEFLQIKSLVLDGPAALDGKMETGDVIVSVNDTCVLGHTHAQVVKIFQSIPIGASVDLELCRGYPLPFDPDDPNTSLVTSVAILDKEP

[5] = molecular target: T2, TX1BP3, O14907
[6] = molecular target: T3, TIAM2, Q8IVF5
[7] = molecular target: FRMPD2_1, Q68DX3
FRMPD2_1, Q68DX3, sequence (Q68DX3 770-861): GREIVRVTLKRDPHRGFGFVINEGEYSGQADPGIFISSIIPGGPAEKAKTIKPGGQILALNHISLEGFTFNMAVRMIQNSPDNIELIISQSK

[8] = molecular target: T4, MPDZ_5, O75970
[9] = molecular target: SCRIB_3, Q14160
SCRIB_3, Q14160, sequence (Q14160 999-1103): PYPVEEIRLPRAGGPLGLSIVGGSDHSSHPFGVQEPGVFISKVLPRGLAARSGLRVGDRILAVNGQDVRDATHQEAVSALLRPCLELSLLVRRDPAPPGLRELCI

[10] = molecular target: T5, ARHGAP21, Q5T5U3
[11] = molecular target: T6, MPDZ_10, O75970
[12] = molecular target: T7, LIN7B, Q9HAP6
[13] = molecular target: T8, DLG3_1, Q92796
[14] = molecular target: AHNAK1, Q09666
AHNAK1, Q09666, sequence (Q09666 4-100): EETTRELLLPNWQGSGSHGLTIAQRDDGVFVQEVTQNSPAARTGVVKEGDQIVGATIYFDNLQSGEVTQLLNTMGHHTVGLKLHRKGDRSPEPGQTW

[15] = molecular target: PICK1, Q9NRD5
PICK1, Q9NRD5, sequence (Q9NRD5 17-115): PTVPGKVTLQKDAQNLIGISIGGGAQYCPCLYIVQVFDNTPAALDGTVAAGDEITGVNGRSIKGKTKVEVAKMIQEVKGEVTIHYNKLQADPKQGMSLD

[16] = molecular target: T9, SNTB1, Q13884
[17] = molecular target: T10, GRIP1_4, Q9Y3R0
[18] = molecular target: LAP2, Q96RT1
LAP2, Q96RT1, sequence (Q96RT1 other isoform, or with tags, fused parts or gaps): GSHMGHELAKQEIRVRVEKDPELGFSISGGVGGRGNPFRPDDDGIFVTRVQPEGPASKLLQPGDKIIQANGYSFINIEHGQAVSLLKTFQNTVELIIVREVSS

[19] = molecular target: DLG5_1, Q8TDM6
DLG5_1, Q8TDM6, sequence (Q8TDM6 617-713): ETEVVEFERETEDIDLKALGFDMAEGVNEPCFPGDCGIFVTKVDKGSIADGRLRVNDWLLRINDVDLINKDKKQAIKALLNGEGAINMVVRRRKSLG

[20] = molecular target: GRID2IP_2, A4D2P6
GRID2IP_2, A4D2P6, sequence (A4D2P6 272-370): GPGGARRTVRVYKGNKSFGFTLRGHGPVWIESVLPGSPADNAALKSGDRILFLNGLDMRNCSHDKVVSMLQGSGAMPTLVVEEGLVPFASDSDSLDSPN

[21] = molecular target: T11, MPP6, Q9NZW5
[22] = molecular target: GRASP, Q7Z6J2
GRASP, Q7Z6J2, sequence (Q7Z6J2 96-193): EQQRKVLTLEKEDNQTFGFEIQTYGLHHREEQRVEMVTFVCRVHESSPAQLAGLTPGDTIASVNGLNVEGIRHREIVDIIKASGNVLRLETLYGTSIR

[23] = molecular target: FRMPD2_2, Q68DX3
FRMPD2_2, Q68DX3, sequence (Q68DX3 944-1038): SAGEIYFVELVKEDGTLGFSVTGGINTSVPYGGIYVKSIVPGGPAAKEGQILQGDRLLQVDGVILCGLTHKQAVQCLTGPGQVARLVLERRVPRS

[24] = molecular target: Inadl_6, Q8NI35
Inadl_6, Q8NI35, sequence (Q8NI35 1058-1167): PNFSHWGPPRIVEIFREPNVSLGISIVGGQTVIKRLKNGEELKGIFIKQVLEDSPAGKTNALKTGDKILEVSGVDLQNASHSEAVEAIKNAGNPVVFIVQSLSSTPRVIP

[25] = molecular target: T12, PDZD2_2, O15018

pKd [1]	pKd [2]	pKd [3]	pKd [4]	pKd [5]	pKd [6]	pKd [7]	pKd [8]	pKd [9]	pKd [10]	pKd [11]	pKd [12]	pKd [13]	pKd [14]	pKd [15]	pKd [16]	pKd [17]	pKd [18]	pKd [19]	pKd [20]	further results	Binder
below the threshold	below the threshold	3.97	below the threshold	below the threshold	below the threshold	below the threshold	below the threshold	below the threshold	below the threshold	below the threshold	below the threshold	below the threshold	below the threshold	below the threshold	below the threshold	below the threshold	below the threshold	below the threshold	below the threshold	pKd [21]: 3.79; pKd [22]: below the threshold; pKd [23]: below the threshold; pKd [24]: below the threshold; pKd [25]: below the threshold	TSSMRGMDAV [RSRC2, Q7L4I2]
5.6	3.9	below the threshold	4.24	3.82	below the threshold	below the threshold	below the threshold	4.14	4.08	below the threshold	below the threshold	4.19	below the threshold	below the threshold	4.95	below the threshold	4.05	below the threshold	below the threshold	pKd [21]: below the threshold; pKd [22]: 3.5; pKd [23]: 4.1; pKd [24]: 3.55; pKd [25]: 4.32	TACCHSETVV [TGFA, P01135]
below the threshold	below the threshold	below the threshold	below the threshold	below the threshold	4.07	below the threshold	below the threshold	3.49	below the threshold	below the threshold	3.75	below the threshold	below the threshold	4.13	below the threshold	below the threshold	3.86	below the threshold	3.87	pKd [21]: below the threshold; pKd [22]: below the threshold; pKd [23]: below the threshold; pKd [24]: below the threshold; pKd [25]: 4.22	TLPRKRMSSI [GPRC6A, Q5T6X5]
below the threshold	3.61	below the threshold	below the threshold	below the threshold	4.1	below the threshold	below the threshold	below the threshold	below the threshold	below the threshold	below the threshold	below the threshold	below the threshold	below the threshold	below the threshold	below the threshold	below the threshold	below the threshold	below the threshold	pKd [21]: below the threshold; pKd [22]: below the threshold; pKd [23]: below the threshold; pKd [24]: below the threshold; pKd [25]: below the threshold	QSPANIYYKV [EFNB1, P52799]
